The results in this text go back to article PMC8363014, “OsMADS23 phosphorylated by SAPK9 confers drought and salt tolerance by regulating ABA biosynthesis in rice”.

The target in this series is OsMADS23 (Oryza sativa (rice), UniProt Q6VAM4 1-159). Put plainly: EMSA; signal reduced by excess unlabeled probe; LightShift Chemiluminescent EMSA kit (Thermo), manufacturer's instructions; buffer, salt, pH and temperature not stated. The following applies: protein: recombinant; tags: His, trigger factor (pCold-TF); chain copies: 2; label: biotin; blunt. For orientation: A gel shift assay detects complexes by their altered migration in electrophoresis.
Chain of OsMADS23 (Q6VAM4 whole entry): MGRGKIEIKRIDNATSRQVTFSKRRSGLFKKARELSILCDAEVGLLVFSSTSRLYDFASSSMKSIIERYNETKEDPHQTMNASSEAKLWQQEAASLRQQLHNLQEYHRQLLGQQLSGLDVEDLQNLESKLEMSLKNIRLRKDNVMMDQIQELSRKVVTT

B1: OsNCED2-b (probe 2) (dsDNA)
DNA 1: GGGGTTGTCTATGTAACATATAATTGGATATATATTCATTCC
DNA 2: GGAATGAATATATATCCAATTATATGTTACATAGACAACCCC
modifications: 3' biotin
As for B1, the binding result is “binds”.

B2: OsNCED2-c (probe 3) (dsDNA)
DNA 1: GGGGCTAATAATTAGCCTTCCAAAATTTTGCTATTTATAAGTA
DNA 2: TACTTATAAATAGCAAAATTTTGGAAGGCTAATTATTAGCCCC
modifications: 3' biotin
With B2, the binding result is on record as “binds”.

B3: OsNCED2-a (probe 1) (dsDNA)
DNA 1: AACATTCTATCCCATAAAATTGTGTTTTGTTGCAAATGTCC
DNA 2: GGACATTTGCAACAAAACACAATTTTATGGGATAGAATGTT
modifications: 3' biotin
As to B3, the binding result is listed as “binds”.
